# Legend:
# [1] = target: cyno OX40_Fc (Acro Biosystems) (cyno); test: BLI, IgG1 on tip, cyno OX40-Fc 100 nM, avid
# [2] = target: human OX40 on cells (CHO-hOX40, 293HEK-hOX40, Jurkat-hOX40, activated primary CD4+ T cells) (human) (UniProt P43489); test: flow cytometry, 293HEK-hOX40, 1.6 nM
# [3] = target: human OX40 on cells (CHO-hOX40, 293HEK-hOX40, Jurkat-hOX40, activated primary CD4+ T cells) (human) (UniProt P43489); test: flow cytometry, 293HEK-hOX40, 200 nM
# [4] = target: human OX40_Fc (R&D Systems) (human) (UniProt P43489); test: BLI, IgG1 on tip, hOX40-Fc 50 nM, avid
# human OX40_Fc (R&D Systems) (human), sequence (P43489 29-216): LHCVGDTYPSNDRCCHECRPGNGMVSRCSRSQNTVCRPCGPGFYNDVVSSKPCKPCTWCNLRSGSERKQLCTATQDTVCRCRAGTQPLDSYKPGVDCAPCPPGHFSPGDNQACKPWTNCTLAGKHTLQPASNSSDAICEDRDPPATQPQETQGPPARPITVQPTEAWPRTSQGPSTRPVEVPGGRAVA
# [5] = target: human OX40 on cells (CHO-hOX40, 293HEK-hOX40, Jurkat-hOX40, activated primary CD4+ T cells) (human) (UniProt P43489); test: flow cytometry, 293HEK-hOX40, 40 nM
# [6] = target: human OX40 on cells (CHO-hOX40, 293HEK-hOX40, Jurkat-hOX40, activated primary CD4+ T cells) (human) (UniProt P43489); test: flow cytometry, CHO-hOX40, 100 nM blocker, competitor OX40L-hFc-fluorescein
# [7] = target: human OX40 on cells (CHO-hOX40, 293HEK-hOX40, Jurkat-hOX40, activated primary CD4+ T cells) (human) (UniProt P43489); test: flow cytometry, 293HEK-hOX40, 8 nM
# [8] = target: human OX40 on cells (CHO-hOX40, 293HEK-hOX40, Jurkat-hOX40, activated primary CD4+ T cells) (human) (UniProt P43489); test: flow cytometry, CHO-hOX40, 100 nM
# [9] = target: human OX40 on cells (CHO-hOX40, 293HEK-hOX40, Jurkat-hOX40, activated primary CD4+ T cells) (human) (UniProt P43489); test: flow cytometry, activated CD4+ T cells, donor 2, 100 nM
# [10] = target: human OX40 on cells (CHO-hOX40, 293HEK-hOX40, Jurkat-hOX40, activated primary CD4+ T cells) (human) (UniProt P43489); test: cell-based or functional assay
# human OX40 on cells (CHO-hOX40, 293HEK-hOX40, Jurkat-hOX40, activated primary CD4+ T cells) (human), sequence (P43489 29-277): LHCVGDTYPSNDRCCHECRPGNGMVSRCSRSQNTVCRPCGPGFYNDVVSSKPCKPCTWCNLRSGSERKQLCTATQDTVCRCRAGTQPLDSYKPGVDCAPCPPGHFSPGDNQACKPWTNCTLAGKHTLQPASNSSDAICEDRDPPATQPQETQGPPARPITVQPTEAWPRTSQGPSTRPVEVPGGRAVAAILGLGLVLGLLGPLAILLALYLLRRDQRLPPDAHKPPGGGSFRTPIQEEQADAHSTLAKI
Kd [1] [nM],MFI [2] [MFI],MFI [3] [MFI],Kd [4] [nM],MFI [5] [MFI],MFI of OX40L signal on CHO-OX40 cells [6] [MFI],MFI [7] [MFI],CHO-OX40 binding intensity (MFI) [8] [MFI],MFI [9] [MFI],"blocking of OX40L-based activation (recombinant OX40L 60 ug/ml), NFkB-luciferase in Jurkat-hOX40 [10] [nM]",Substance
5.95,613000,2.41e+06,0.613,2.76e+06,36000,2.06e+06,169000,242000,,"11D4, IgG1 OX40 antibody"
,,,,,,,,,> 0.08,"pogalizumab, human IgG1 OX40 antibody"

# From US20200140562A1
